In patent US20040191815:

Key:
MafG homodimer [1] = biological target: MafG homodimer (UniProt O15525); assay: EMSA; conditions: gel mobility shift assay comparison, probe details not given
MafG homodimer [2] = biological target: MafG homodimer (UniProt O15525); assay: SPR; conditions: pH 7.9; for Kd: 20 mM Hepes, 200 mM NaCl, 4 mM MgCl2, 1 mM EDTA, BSA
[3] = 5' thiol on anchor strand (immobilized)

MafG homodimer, sequence (O15525 whole entry): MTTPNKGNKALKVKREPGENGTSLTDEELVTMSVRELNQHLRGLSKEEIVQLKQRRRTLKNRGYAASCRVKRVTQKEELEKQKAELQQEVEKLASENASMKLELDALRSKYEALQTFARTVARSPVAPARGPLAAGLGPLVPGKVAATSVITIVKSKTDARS

Sequence	Kd (MafG homodimer [1]; [3]) [nM]	Kd (MafG homodimer [2]; [3]) [nM]	Ka (MafG homodimer [2]; 5' thiol on anchor strand (immobilized), 10 mM Hepes, 300 mM NaCl, 4 mM Mg, 1 mM EDTA, ka 2.22e5 M-1s-1, kd 8.80e-4 s-1, Example 1 sequence printed only in figure) [M⁻¹]	Kd (MafG homodimer [2]; 5' thiol on anchor strand (immobilized), SPR imaging) [nM]	Kd (MafG homodimer [1]; 5' thiol on anchor strand (immobilized) [variable site 22-34 (TGCTGATTCAGCC), 5' thiol linker at 1 left out]) [nM]	Kd (MafG homodimer [2]; 5' thiol on anchor strand (immobilized) [variable site 22-34 (TGCTGATTCAGCC), 5' thiol linker at 1 left out], listing SEQ 7 has 14 nt, Table 2 prints 13 nt) [nM]
TTTTTTTTTTTTTTTCGGAATAGTTGACTCAGCATTACTC (double strand) [hNQO1m]	273	8.58				
TTTTTTTTTTTTTTTCGGAATTGCTGACTCAGCATTACTC (double strand) [MARE 25]	249		2.52e+08	2.5		
TTTTTTTTTTTTTTTCGGAATTGCTGATTCAGCCTTACTC (double strand) [hOPSIN]					252	7.67
